Tests used:
Biotinylated IL-4R = biological target: T1, Biotinylated IL-4R (human, UniProt P24394 26-232, limits assumed, biotinylated); test: competitive ELISA: IL-4 coated, biotinylated IL-4R preincubated with scFv
T1 construct: also called human IL-4R; hIL-4R
Excerpt: Bound biotinylated IL-4R was then detected using streptavidin-HRP.

cynomolgus IL-4R-Fc = biological target: T2, cynomolgus IL-4R-Fc (cynomolgus monkey (Macaca fascicularis), UniProt A0A2K5V580 33-239); test: SPR, capture setup: cynomolgus IL-4R-Fc captured, scFv as analyte
T2 construct: also called cynomolgus IL-4R (capture setup); not shown: Fc part

Human IL-4R-Fc = biological target: T3, Human IL-4R-Fc (human, UniProt P24394 26-232); test: SPR (Biacore T200), human IL-4R-Fc captured, scFv as analyte 0.12 to 90 nM, 1:1 model
T3 construct: not shown: Fc part (captured via anti-human IgG-Fc)
Description: Affinity of the 16 humanized scFvs (derived from 5 rabbit monoclonal antibodies) to human IL-4R was determined by SPR analysis on a T200 device (Biacore, GE Healthcare). Human IL-4R-Fc was captured via an anti-human IgG-Fc coupled to a carboxylmethylated dextran surface and the scFvs were injected as analyte. After each analyte injection cycle the sensor chip was regenerated and new antigen was captured. The scFvs were measured using a dose response multi-cycle kinetic assay with seven analyte concentrations ranging from 0.12 to 90 nM diluted in running buffer. Obtained sensorgrams were fitted using a 1:1 binding model.
The scFvs were measured using a dose response multi-cycle kinetic assay with seven analyte concentrations ranging from 0.12 to 90 nM diluted in running buffer. Obtained sensorgrams were fitted using a 1:1 binding model.

IL-4R on HEK-Blue cells [1] = biological target: T4, IL-4R on HEK-Blue cells (human, UniProt P24394 26-825); test: cell-based or functional assay
IL-4R on HEK-Blue cells [2] = biological target: T4, IL-4R on HEK-Blue cells; test: cell-based or functional assay; remark: listed apart in the source
[3] = biological target: T5, recombinant cynomolgus monkey IL-4R (ECD with His-tag, Acro Biosystems) (cynomolgus monkey, UniProt A0A2K5V556 26-232); test: SPR (Biacore T200), Morrison antibody captured via anti-human IgG-Fc, cynomolgus IL-4R ECD-His as analyte, 1:1 model
T5 construct: analyte in the SPR of the Morrison-H antibodies; also called cynomolgus IL-4R
Description: (§1) In this SPR experiment, Morrison molecules were captured via an anti-human IgG-Fc antibody (Human Antibody Capture Kit; Biacore, Cytiva) covalently immobilized to a carboxylmethylated dextran surface (CM5 sensorchip; Biacore, Cytiva) and a titration series of human IL-4R ECD was injected as analyte. After each analyte injection cycle, the sensor chip was regenerated (MgCl₂), and new Morrison antibody was subsequently re-captured. […] The apparent dissociation (kd) and association (kₐ) rate constants and the apparent dissociation equilibrium constant (KD) were calculated with the Biacore analysis software (Biacore Evaluation software Version 3.2, Cytiva) using one-to-one Langmuir binding model and quality of the fits was monitored based on Chi2 and U-value, which are measures for the quality of the curve fitting. The binding level was calculated as the maximum stability binding achieved normalized to the theoretical Rmax. Cross-reactivity to cynomolgus monkey IL-4R was measured using the same setup as for the analysis of human IL-4R kinetics, with the difference that recombinant cynomolgus monkey IL-4R (ECD with His-tag, Acro Biosystems) protein was used as analyte instead of human IL-4R.

[4] = biological target: T6, recombinant human IL-4R protein (ECD with His Tag, Sino Biological) (human, UniProt P24394 26-232); test: SPR (Biacore T200), Morrison antibody captured via anti-human IgG-Fc, human IL-4R ECD-His as analyte 0.175 to 45 nM, 1:1 model
T6 construct: extracellular domain; analyte in the SPR of the Morrison-H antibodies; also called human IL-4R ECD; not shown: His tag
Description: as §1

IL-4R on HEK-Blue cells [5] = biological target: T4, IL-4R on HEK-Blue cells; test: cell-based or functional assay; remark: listed apart in the source

T5 sequence (A0A2K5V556 entry or part of it limits assumed): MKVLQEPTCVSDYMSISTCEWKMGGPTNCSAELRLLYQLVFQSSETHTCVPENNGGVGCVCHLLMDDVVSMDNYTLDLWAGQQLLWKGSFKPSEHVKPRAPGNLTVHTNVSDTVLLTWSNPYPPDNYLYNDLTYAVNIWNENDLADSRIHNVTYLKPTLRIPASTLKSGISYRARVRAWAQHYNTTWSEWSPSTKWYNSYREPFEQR

Kd [3] [nM]	koff [3] [s⁻¹]	kon [3] [M⁻¹ s⁻¹]	Kd [4] [nM]	koff [4] [s⁻¹]	kon [4] [M⁻¹ s⁻¹]	Mean IC50, neutralization of human IL-4-induced signaling in the stat-6 reporter gene assay (IL-4R on HEK-Blue cells [5]) [nM]	Mean rel. IC50 [IC50 dupilumab/IC50 sample], human IL-4-induced signaling (IL-4R on HEK-Blue cells [5]) [ratio]	Retained IC50 with and without IL-31 excess (n = 1) [IC50, no IL-31/IC50, with IL-31] (IL-4R on HEK-Blue cells [5]) [ratio]	Binder	other results
									PRO1899 (scFv, optimized variant of PRO1517 (VH L12R, V103T, L144Q and RDNSKN changed to KASST, AHo 82-87); scFv VL-linker-VH; also called 44-34-C10-sc09) scFv: DIQMTQSPSSLSASVGDRVTITCQASEDIESYLAWYQQKPGKAPKLLIYRASTLAYGVPSRFSGSGSGTDFTLTISSLQPEDFATYYCLGSSYSTGSNIFGTGTKVTVLGGGGGSGGGGSGGGGSGGGGSEVQLVESGGGRVQPGGSLRLSCAASGFSSSSAHYMCWVRQAPGKGLEWIGCIYAGSRGSTYYASWAKGRFTISKASSTTVYLQMNSLRAEDTATYYCARAAFVNRGVSWIWPYYFSLWGQGTQVTVSS	IC50 (Biotinylated IL-4R): 2.98 ng/mL; rel. IC50 (IC50, dupilumab/IC50, test sample) (Biotinylated IL-4R): 2.07 ratio; Kd (cynomolgus IL-4R-Fc): 0.012 nM; koff (cynomolgus IL-4R-Fc): 0.00014 s⁻¹; kon (cynomolgus IL-4R-Fc): 1.1e+07 M⁻¹ s⁻¹; Kd (Human IL-4R-Fc): 0.00692 nM; koff (Human IL-4R-Fc): 2.04e-05 s⁻¹; kon (Human IL-4R-Fc): 2.95e+06 M⁻¹ s⁻¹; IC50, neutralization of hIL-4 induced signaling in reporter gene assay (IL-4R on HEK-Blue cells [1]): 0.71 ng/mL; IC50, neutralization of hIL-13 induced signaling in reporter gene assay (IL-4R on HEK-Blue cells [1]): 0.56 ng/mL; rel. IC50 (IC50, dupilumab/IC50, test sample), hIL-4 induced signaling (IL-4R on HEK-Blue cells [1]): 1.61 ratio; rel. IC50 (IC50, dupilumab/IC50, test sample), hIL-13 induced signaling (IL-4R on HEK-Blue cells [1]): 1.8 ratio
0.144	4.9e-05	370000	0.291	0.000101	352000	0.0239	0.42	0.71	PRO2198 (bispecific antibody, human IgG4 S228P, kappa, IgG4 (S228P) Morrison-H, IgG4-(scFv)2: Fab arms 44-34-C10-sc08 (anti-IL-4R), anti-IL-31 scFv 50-09-D07-sc04 fused to the C-terminus of the heavy chain; also called Morrison-H antibody PRO2198; anti-IL-4RxIL-31 bispecific antibody) light: DIQMTQSPSSLSARVGDRVTITCQASEDIESYLAWYQQKPGKAPKLLIYRASTLAYGVPSRFSGSGSGRDFTLTISSLQPEDFATYYCLGSSYSTGSNIFGQGTKVEIKRTVAAPSVFIFPPSDEQLKSGTASVVCLLNNFYPREAKVQWKVDNALQSGNSQESVTEQDSKDSTYSLSSTLTLSKADYEKHKVYACEVTHQGLSSPVTKSFNRGEC heavy: not shown	Mean IC50, neutralization of human IL-13 induced signaling in the stat-6 reporter gene assay (IL-4R on HEK-Blue cells [2]): 0.0221 nM; Mean rel. IC50 [IC50 dupilumab/IC50 sample], human IL-13 induced signaling (IL-4R on HEK-Blue cells [2]): 0.42 ratio
0.0351	3.44e-05	980000	0.197	5.76e-05	293000	0.0115	0.72	1.25	PRO2199 (bispecific antibody, human IgG4 S228P, kappa, IgG4 (S228P) Morrison-H, IgG4-(scFv)2: Fab arms 44-34-C10-sc09 (anti-IL-4R), anti-IL-31 scFv 50-09-D07-sc04 fused to the C-terminus of the heavy chain; also called Morrison-H antibody PRO2199; anti-IL-4RxIL-31 bispecific antibody) light: DIQMTQSPSSLSASVGDRVTITCQASEDIESYLAWYQQKPGKAPKLLIYRASTLAYGVPSRFSGSGSGTDFTLTISSLQPEDFATYYCLGSSYSTGSNIFGQGTKVEIKRTVAAPSVFIFPPSDEQLKSGTASVVCLLNNFYPREAKVQWKVDNALQSGNSQESVTEQDSKDSTYSLSSTLTLSKADYEKHKVYACEVTHQGLSSPVTKSFNRGEC heavy: not shown	Mean IC50, neutralization of human IL-13 induced signaling in the stat-6 reporter gene assay (single analysis) (IL-4R on HEK-Blue cells [2]): 0.0113 nM; Mean rel. IC50 [IC50 dupilumab/IC50 sample], human IL-13 induced signaling (single analysis) (IL-4R on HEK-Blue cells [2]): 0.69 ratio
